Target: the molecule itself
Test: AUC; sedimentation velocity at 25 °C, 48,000 rpm; GDH 0.2 mg/mL with HSPB5 0.05 mg/mL, 25 mg/mL PEG and 1 M betaine, heated 10 min at 50 °C before the run; 0.1 M Na-phosphate pH 7.6, 0.01 M NaCl

B1: bovine liver glutamate dehydrogenase, heated 10 min at 50 °C (enzyme)
chain: not shown
notes: bovine liver glutamate dehydrogenase [EC 1.4.1.2-4], homohexamer of about 360 kDa; also called GDH; source: bought: Sigma-Aldrich (suspension in ammonium sulfate), desalted on a PD-10 column
stoichiometry N: 6

From article PMC9737104, “Effects of Molecular Crowding and Betaine on HSPB5 Interactions, with Target Proteins Differing in the Quaternary Structure and Aggregation Mechanism” (International Journal of Molecular Sciences, 2022)
